Consider one molecule from patent publication US20260139035A1 (NATIONAL UNIVERSITY CORPORATION KUMAMOTO UNIVERSITY, published 2026).

For this experiment, the target named is spike protein of SARS-CoV (SARS-CoV, UniProt P59594 14-1255). Kind of experiment: cell-based or functional assay.

B1: 4-66 antibody (antibody, V domains shown)
VH: EVQLVESGGGLVQPGGSLRLSCAASGIIVSRNYMTWVRQAPGKGLEWVSVIYSGGTTYYADSVKGRFTTSRDDSKNTLYLQMNSLRGDDTAVYYCARDPPHRRGSYWGQGTLVTVSS
VL: DILMTQSPSSLSASVGDRVTITCQASQDINKYLNWYQQKPGKAPKLLIYDASNLETGVPSRFSGSGSGTDFSFTISSLQPEDVATYYCQQSDNLPPTFGQGTNVEIK
In the case of B1, the “IC50, neutralization” value came to 0.55 µg/mL.
